In a protein production outcome set (Wang et al. 2014):

Test: label from the status in PepcDB records

Sequence | protein production
MCMLEPSKIFKALSNPINLKILTLLRSSSFHPRELARILNRDETDISRRLRQLERLGLIKGKWERVDGKNVRVYSLKVSEIRIFMHPTKLEVKVGENESYEAPIEWESSPRVEVFVGRKRELSIIRNAKGVVVIYGIAGIGKTSLAAKAFPNAYWYNVTGLEDFKYFAWQLGLFLSSIGFEDLLEYLRGGGNNENDIFKLITEGIEKTGAIIIIDDFHKFQDEKVNYLLSYLAPRIKKGKVIITTRIRPNLGNEGVTYVNLKGLNPEEAYSLAREKEKSMTPEEFAKLYKLTFGHPLMLNLILESSEILATGKDTVFNFLFEEVYQMLNEEEKDLLSILSLFDEPIEYEGIKFLYDRNPFVPLYSLMKKGLIEKKGEKYFVHDMVREFVREVSNQEEKEVYLRHVNFLLKSKTPINFLRAFKYAIKVGSSELIRNLVELRVKEFYRIIVDFPRMYQRLLMEVEDNPYAKIEIAIIEVQRGLFEKAIKLLKEAEPYVDEFFKCEIYSWLADAYMELENLEKAERYLKKTKEIVEKINDMYAWFSYYAEKTKYEYYKENSREALKSALKELEIIRKIGDPEKEGLVLLHVGDIYLHMGNYEKGISYYQEALKMAKAYGIKFLEHISYMELAKGYYQLKLYEKASEYSEKAANYFLMIRNYRRATDAMAYGSVSYIATKNLEKAEKFAKEMIRIAQSTDYPLAWAGYIFLAAVDFLKGDDWREDYNLGKAHLKEYPWLFEAVLDELKKVFDLSNFK | failed
MTRVLYCGDTSLETAAGYLAGLMTSWQWEFDYIPSHVGLDVGELLAKQDLVILSDYPAERMTAQAIDQLVTMVKAGCGLVMLGGWESYHGLGGNWDQTLLAEVLPVDIKSADDRINFDQPTLAIPAAINSVSHPILQNLPWEDRPPTIGGLNRIAAKAKAQTLLMARVWRPTFSLEHGKTTWEHADHHPLLVVGEAGTGRVAAFASDVAPHWVGGLVDWGDERVTSQAPGAGAIEVGNLYSQFFRQMLEWVAKSTR | not failed
MTMADETIILNVLGQYTRAHDRRDPDAMAALFAPEATIEIVDAVGGASRSISRLEGRDAIRVAVRQMMAPHGYRAWSQNVVNAPIIVIEGDHAVLDAQFMVFSILAAEVPDGGWPTGTFGAQGRIVPIEAGQYRLTLRTVADGWVISAMRIEHRLPMAFG | not failed
MDKILEILKDFGIVELRPPQKKALERGLLDKNKNFLISIPTASGKTLIGEMALINHLLDGNKNPTNKKGIFIVPLKALASEKYEEFKSKYERYGLRIALSIGDYDEDEDLSKYHLIITTAEKLDSLWRHKIDWINDVSVVVVDEIHLINDETRGGTLEILLTKLKEFNVQIIGLSATIGNPDELAEWLNAELIVDDWRPVELKKGIYKNEAIEFINGEIREIKAVDNNDIYNLVVDCVKEGGCCLVFCNTKRNAVNEAKKLNLKKFLTEEEKIRLKEIAEEILSILEPPTEMCKTLAECILNGSAFHHAGLTYQHRKIVEDAFRKRLIKVICCTPTLCLNANTEILQESGFRKITELNKDEKVFALCGKEIKPVDGWKVHKTPQHEYNIVVKTVNGLEITTTPNHIFLVKENGSLKEKEAKDLKVGDYVATVDRIRVKEKDIDLSNGDLYFIGYFIGDGYTGVIEKNTLKATPDLAFNPKYPPNFDDSELHKKYFLKCRISKGVAHYIYSKKLRKIFNKLNMLTKDNKNIDAFCNLPLDKLAYLIAGLFDSDGYIYLNRKNIEFYSISEKLVEQLQFVLLRFGIHSSIRKKKTKTMVSPTNGKEYKCKDIYVLTIRDFMSIKRFYENIPLRHEEKRRKLEEIIKNKEIGQIPSEFVALRFTPIAKIWCDCGFSVDLTMFKPRTKRQRELNKKRVKLLFELLDGKKLITNYKEYYSKRKNPYFDFIVREKINGNNYYSLNEKGRVLMSLLNKHIKDKENLEEMYNFLVNLEKCPICGKPIHKEMRYSWKKECYDGDIYWDRIKEIKKIKVNDKYAYDIELPDDGSNSHYIVANGFIVHNSAGLNLPCRRAIVKDLTRFTNKGMRYIPIMEIQQCIGRAGRPGLDPYGEGIIVAKNDRDYLRAYQALTQKPEPIYSKLSNQAVLRTQLLGLIATGEIRDEYDLEWFIRNTFYAHQYGNLREVAKNINEVIRFLEENEFIIDFMPTELGKRVSELYIDPLSAKFIIDGLEEMENEEEIYYLYLISKTLEMMPNLRVYNSEELNLIDEMDSLGIKSFEIEDLEAFKTAKMLYDWINEVPEDEILKRYKIEPGILRYKVENAVWIMHALKEIAKLIGKSSDIPEKLEIRLEYGAKEDIIELLSIKYIGRVRARKLYNAGIRSIEDIINNPSKVASIIGEKIAKKILDELGVKFGQQKLSF | failed
MNRDLSSFKRTMNTLAVSSDVAFFNITLRFWIRRNDETREQGKFKPHTDLPRLQSFYLDYYQKNVMDVIKIIGNQYTILKEIESSAHSAAIRAIHAALPPHKINGDSRKQADSYIQHACDTAGVLFRVLELLSEDVQLPSEFLEADADVKQLAEIFRPYNIIPLYICGKYSMKRLPEY | failed
MTREMARLLISPSNAWPRLRQDYDHHPFAFLVPLLLLPLLPAACLFIGTTQVGWSLPGNDSVQHLSSGSALLLATMCYLGFVAGVVIMGLFVRWVLFRTPSRPSVPGSLTFTTAIAVPLMLAGIVALVPWRILLLLAAAAACAYSVRLLFTGLPLFMRMQERQTLFYAFCILGVGFLTLLTTAFIFIELWGQSLAGSGEYLR | failed
MQGGMMKQLVVAGFFLLLLTSPLSALDVDTYRSSQKQFNTEDKAEQGDAQAQFELGLKYEKGDGVNKDLKKAIYWYQKAADQGQAEAQNNLGVLYLKGEGVPQNSQQAMYWFKKASEQGLAIGQNNIGILYENGLGVKKDPGQAFIWYQKAAEGGNSDGQYNLAVMYMYGNGIPKDIKKAIHWYIKAAEQGDLDAQNNLGVLYERGEEVPRDLKAAISWYTRAANEGSLIAQTNLGVLYMTGDPSIQDGKKAIYWYEKAAAQGGEKAQNNLGYIYEQGIGTEKDMKKAIYWYEKAAENGFTLAQNNLGVLYSNDGELQDYKKAYLWFKKAADQGFAEAQNNLGLMYMKGNGLSVNYHEAVLWYKRAAEQGLPLAQHNLAIMYMKGLGIKKDNKLAIKWYQKAAEKGLDLAQNNLAVMYIRGEGVKRDFKKAMYWYQKAAEQGLDLAQINLGIMYLDGMGVNKDFAKAKYWIGKAKDSGSQDALTIWNKNKLWKYQ | failed
MRERKKYGKHIPKSLSSKINKRKLIQKNICTNYKTIKIIDIYENLPYNQLNNGRTKIKEIILANDVLVVLLISGISRAYNMINGEFLCEINPNNFSVVHTIVYNSYNNTLIIAYASFPAHLQCKVIDCNDLKHGITNSSKLGILFGT | failed
MGWVRTKALTMEQPSAPSLTRWLFAGVLMAIIGVLLFILHASGTVKIISVINIWWVSLMPAGCWLLIFCLRCYLWDRDLKAHQFLLKEAEYGQQRWEDWAGRWLAVLSSAVLLPDHISAAHWGSERPQQYGLARRINYLPVEEPVQLSAMHALLTSIEERVQCLPEELPLYVTLITDNPSPELTSSFSNLWKEHIPGRAVPDDITVTGSFSLSEVEERLKQPVLTVNLLLVIQLNGGTAYSDGLAVLLLTSDDVAQKYHLPHSSRLLRPMPLDMTNFEDDITLFLETQTVACQTPSVIGDAKKWTERSAALITQGGKMHTPWKAEDIALLEKWCGIPGPAAPWLLTALAADLVSLRKQPLLALFSSEQEHFISTITPGSEDDYTG | failed
MLTAQSEYVKKLRPLLPPEAFQADPKKLVILGLNLGIYVAGLTIARHLHQWPGQWLWLFLPMALLMGNSVTVFLFGSHDLMHGSVLKKRSKISYLISLLGLSLWWMPPSQWRSLHNQVHHNNTNSLRDPDRNYLHEQPKTWGKWIHHLFAPSGEVNTLWLIFGMGTAWGVHNFRNLISVLFFTGGNADFVPAAFTVKAQDRQRIWLELAAIGAVHLSILFYLQFQLIPIILGYFLPIFLGHAMGMFYIYTNHLACPMTDINDPLVNSVSLRMPKLFDCLHFNFSYHTEHHLFPDVNSDYYPLVQDLLQTHYPGQMNLLTAKEAWKMLLETPRHYQGETTLVGYNGGETIACPLPKNVPDLTETKVTASV | failed
MSALVSMNGNNGSTATSARIAAKKPISILVLGVDQGLEGRNDKGNSDTIILVTVNPTTKKATMTSIPRDTLTEILGETSNTSYYMFKVNSAYQFGGSSGSIKTVSAMLNVPINYYVEVNMKALESLVNALGGVDVNVPFSFSYDWCDFKKGKQHLDGRYAIAYARMRYDDPRGDYGRQLRQRQIIQAVVKKGLSVNGLANYQKLLKVFAKYVKTNLTFGDMTSLAINYRSAASNISSGYIQGHDATISGTSLQIASTEELQKWSNKLRKSLGLSPQTLTNQETRQNSLNETYNGVDFSSNETITNYTIYEANSITPRSSDSWLEHHHHHH | not failed
MLYHKLGYVQSAQQTLREVMTIWQAWFKALKAYRKNPARFTGRPRMPRYLHKSQRHTFYVTNQNAQIVRKDEQDKGYLVIKKLGIKIKLASADIKKIGRVAFKPVANGYKVIVPYKTKQKIKYLPDNGKYLGIDPGIDNAFACVSNTGARPLLINGRGIKSVNQYYNKKRSELKRLQAKYHQLEKLISTKQGLKPVYQETKAMKRITAWRNDKIRQFAHKASKRIVDYALSCDANTIVIGKNKSWKRSFEMGKRNNQNFIGIPHQVMIDMIKYKANLAGITVIQTNESYTSQISALDHEQPCWNNGNKSRKKQRKSPVNRRIKRGLFKADNGTLINADINGALQIIKKVFPNFSLDDGIVGAVLRPFKWSPTI | failed
MVSIIIPIYNVQDYINDCLYSVYTQTYSEIEVILVNDCTPDNSMLIAHSNIEKLKKRFNVKIIDHKSNKGLSAARNSGVKEATGEWVYFLDSDDEITPDCIECFVRLAERYLSVDFIVGGIRVIGRNISYRLTTSEYVIGNDNILKCYISGMWYEMAWNKLIRKEYFVSNNLWFKEGLLHEDQLFSYQLATTALTMATVNKPTYIYKMRMSGAITSSNGRKNFDSFICILEYMVYSVMQKYSTSSVTLEYAQIIRFSYSILLSLYGKHNLTEMEVVNYELKVDRICRIVTFYKCKLPVPIQIKLTIIKLPQTMRKVLLKWHNKKIQKKLEHHHHHH | not failed
MVETGHHHQHPPAPAAAGHPPVPSMAMARNMGTTWPPAEQLHHLQYCIHSNPSWHETVVLAFQHYIVMLGTTVLIANTLVSPMGGDPGDKARVIQTILFMSGINTLLQTLIGTRLPTVMGVSFAYVLPVLSIIRDYNNGQFDSEKQRFRHTMRTVQGSLIISSFVNIIIGYGQAWGNLIRIFSPIIVVPVVSVVSLGLFLRGFPLLANCVEIGLPMLILLIITQQYLKHAFSRISMILERYALLVCLAIIWAFAAILTVSGAYNNVSTATKQSCRTDRAFLMSSAPWIRIPYPFQWGTPIFKASHVFGMFGAAIVASAESTGVFFAASRLAGATAPPAHVVSRSIGLQGIGVLLEGIFGSITGNTASVENVGLLGLTRIGSRRVVQVSTFFMIFFSIFGKFGAFFASIPLPIFAGVYCILLGIVVAVGISFIQFTDTNSMRNMYVIGVSLFLSLSIAQYFLANTSRAGYGPVRTAGGWFNDILNTIFASAPLVATILATILDNTLEARHASDDARGIPWWKPFQHRNGDGRNDEFYSMPLRINELMPTRFL | failed
VALAATRAFYWIEAQSPDAATAFAQRVFDLYFSDRLDTASPEAVSRLGPEVGLEPEALLAGIADPALKETVRKIGEDAVARGIFGSPFFLVDDEPFWGWDRMEMMAEWIRTGGW | failed
MKLNIKDVVLNYNIIGEGEPIIILHGYSVDHTIMFGCMENLFSDESRYKRIYVDLPGMGKSTSSDSIKTSDNMLDIILEFIMKVTKGENFLLVGESYGGYLSRGVVYKIREKVNGLFLICPAIIPDFNKRTVPEHVILAYDEKLMSKLNKEEAEEFSSMSVVQNEKIYLRFKEEVMSGIKLGNQDFLERLQREGYGFSFDVDKLPQKFDKPTLMLLGKQDASVGYKDAWNILDNYPRATFAVLDMAGHNLQIEQEDIFNLLGKEWISRTYREKDY | failed
